# Source: paper PMC3324469, “Preparation and Characterization of the Extracellular Domain of Human Sid-1” (PLoS ONE, 2012)
# “And” between values parts separate entries of the source, which are not always exact repeats. Identical values can stand only once.
# B1: extracellular domain of human SidT1 (SidT1 ECD), glycosylated, secreted from insect cells (domain or fragment)
# chain: GAASPGHPAKSPRQPPAPRRDPFDAARGADFDHVYSGVVNLSTENIYSFNYTSQPDQVTAVRVYVNSSSENLNYPVLVVVRQQKEVLSWQVPLLFQGLYQRSYNYQEVSRTLCPSEATNETGPLQQLIFVDVASMAPLGAQYKLLVTKLKHFQLRTNVAFHFTASPSQPQYFLYKFPKDVDSVIIKVVSEMAYPCSVVSVQNIMCPVYDLDHNVEFNGVYQSMTKKAAITLQKKDFPGEQFFVVFVIKPEDYACGGSFFIQEKENQTWNLQRKKNLEVTIVPSIKES
# modifications: N-linked glycosylation (sites not given)
# notes: N-terminal glycine appendage left from the TEV protease site; human SidT1 (Sid-1 homolog), extracellular domain, residues 19-304 of Entrez Protein AAI17223, after signal peptidase and TEV cleavage; also called SidT1 extracellular domain; recombinant SidT1 ECD; source: Tni (usually) or Sf9 insect cells, baculovirus, secreted into the medium; not shown: His6, N-terminal, cleaved
# Target: the molecule itself
# Assay: SEC; Superdex 200; concentrated protein applied directly to the column, no pre-incubation period; masses estimated against molecular weight standards
protein,measurement,value
B1,stoichiometry N,2 and 4
